In US20230272082A1 (SENSEI BIOTHERAPEUTICS, published 2023):

T1: biotinylated hVISTA-Fc (human, biotinylated (site not stated))
T1 construct: also called Human VISTA-Fc
T1 chain: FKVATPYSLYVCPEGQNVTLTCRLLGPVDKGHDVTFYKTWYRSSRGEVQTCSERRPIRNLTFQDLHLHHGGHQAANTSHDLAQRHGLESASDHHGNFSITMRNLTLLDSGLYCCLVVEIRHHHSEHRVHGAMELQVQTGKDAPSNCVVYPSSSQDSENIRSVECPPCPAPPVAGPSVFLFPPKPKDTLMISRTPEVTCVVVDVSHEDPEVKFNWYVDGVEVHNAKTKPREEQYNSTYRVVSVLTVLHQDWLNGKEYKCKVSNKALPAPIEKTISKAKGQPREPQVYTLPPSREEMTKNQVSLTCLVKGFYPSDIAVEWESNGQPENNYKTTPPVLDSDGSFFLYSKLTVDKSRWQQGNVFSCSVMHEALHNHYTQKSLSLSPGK


Key:
human VISTA [1] = target: T2, human VISTA (human, UniProt Q9H7M9 33-194, limits assumed); assay: flow cytometry on CHO-VISTA cells, pH 6.0, detection Anti-Fab 647 (legend: Fab on CHO-VISTA cells)
T2 construct: also called hVISTA

human VISTA [2] = target: T2, human VISTA; assay: flow cytometry on CHO-VISTA cells, pH 7.4, detection Anti-Fab 647 (legend: Fab on CHO-VISTA cells)
biotinylated hVISTA-Fc [3] = target: T1, biotinylated hVISTA-Fc; assay: competition ELISA at pH 6.0; SNS-101 dilutions pre-incubated with biotinylated hVISTA-Fc, then added to wells coated with VSIG-8 (blocked partner)
biotinylated hVISTA-Fc [4] = target: T1, biotinylated hVISTA-Fc; assay: competition ELISA at pH 6.0; SNS-101 dilutions pre-incubated with biotinylated hVISTA-Fc, then added to wells coated with Syndecan-2 (blocked partner)
biotinylated hVISTA-Fc [5] = target: T1, biotinylated hVISTA-Fc; assay: competition ELISA at pH 6.0; SNS-101 dilutions pre-incubated with biotinylated hVISTA-Fc, then added to wells coated with LRIG-1 (blocked partner)
biotinylated hVISTA-Fc [6] = target: T1, biotinylated hVISTA-Fc; assay: competition ELISA at pH 6.0; SNS-101 dilutions pre-incubated with biotinylated hVISTA-Fc, then added to wells coated with PSGL-1 (blocked partner)
biotinylated hVISTA-Fc [7] = target: T1, biotinylated hVISTA-Fc; assay: competition ELISA at pH 6.0; SNS-101 dilutions pre-incubated with biotinylated hVISTA-Fc, then added to wells coated with VSIG-3 (blocked partner)

FOB (fold over background) (human VISTA [1]) | FOB (fold over background) (human VISTA [2]) | IC50 (biotinylated hVISTA-Fc [3]) | IC50 (biotinylated hVISTA-Fc [4]) | IC50 (biotinylated hVISTA-Fc [5]) | IC50 (biotinylated hVISTA-Fc [6]) | IC50 (biotinylated hVISTA-Fc [7]) | Binder
29.4 | 34.8 | – | – | – | – | – | antibody 55873 (mab#2) (antibody, V domains shown, Fully human parental antibody; also called Anti-VISTA mAb #2) VH: EVQLVESGGGLVQPGGSLRLSCAASGFTFSSYSMNWVRQAPGKGLEWVSYISSSSSTIYYADSVKGRFTISRDNAKNSLYLQMNSLRAEDTAVYYCAREAGGVVGRVDFQHWGQGTLVTVSS VL: DIQMTQSPSSLSASVGDRVTITCQASQDISNYLNWYQQKPGKAPKLLIYDASNLETGVPSRFSGSGSGTDFTFTISSLQPEDIATYYCQQADFLPPWTFGGGTKVEIK
– | – | 6 nM | 6 nM | 6 nM | 7 nM | 6 nM | SNS-101 (antibody, human IgG1, V domains shown, Described as a fully human IgG1; also called antibody 67375) VH: EVQLVESGGGLVQPGGSLRLSCAASGFTFDDYSMNWVRQAPGKGLEWVSYISSDADTIYYADSVKGRFTISRDNAKNSLYLQMNSLRAEDTAVYYCAREAGGVLGRVDFQHWGQGTLVTVSS VL: DIQLTQSPSSLSASVGDRVTITCQASQDISNYLNWYQQKPGKAPKLLIYDASNLGTGVPSRFSGSGSGTDFTFTISSLQPEDIATYYCQQADFVPPWTFGGGTKVEIK
